Where two headings read alike, the source gives them in different places. Residues, ends and D or L forms follow the SMILES beside them. *: point of attachment. X1 = CC1(C)C(/C=C/C2=C(Oc3ccc(S(=O)(=O)O)cc3)C(=C/C=C3/N(CCCCS(=O)(=O)[O-])c4ccc(S(=O)(=O)O)cc4C3(C)C)/CCC2)=[N+](CCCCCC(=O)NCCN2C(=O)CC(*)C2=O)c2ccc(S(=O)(=O)O)cc21
Assays:
[1] = In vivo photoacoustic imaging of peptide uptake in xenograft breast tumors; parameters: species or system human xenograft, nude mouse; settings: female, nude athymic (002019 Foxn1 <nu>), mouse, in vivo, iv, 75 nmol per mouse, BT474 and MDA-MB-231 tumors, tail vein, 300 μM in 250 μL
Protocol: (§1) BT474 cells were diluted in growth factor reduced (GFR) Matrigel Matrix (Corning), and injected into one flank of female nude athymic mice (002019 Foxn1 , Jackson Laboratory) at 4–6 weeks of age with weight between 20–25 grams. A 0.18 mg 17-β-Estradiol pellet (#SE-121, Innovative Research of America) with 60 day release form was placed subcutaneously around the neck 1 day prior to tumor implantation to stimulate tumor growth. ∼1 × 10^7 cells were implanted for each tumor, and 2–3 implantations were performed in each mouse. MDA-MB-231 tumors were generated similarly except without Matrigel Matrix injection and only one implantation was performed in each mouse. Tumor size was monitored by ultrasound and MRI weekly. For all in vivo animal experiments, anesthesia was induced and maintained with inhaled isoflurane mixed with oxygen at a concentration of 2–4% at a flow rate of ~0.5 L/min via a nose cone.
(§2) We used photoacoustic tomography (Nexus128, Endra Inc) to measure peptide uptake by the human xenograft breast tumors. This system provides laser excitation with 7 ns pulses, 25 mJ/pulse, […] repetition rate, and tunable wavelength from 680 nm to 950 nm. The acoustic signal was collected with 128 unfocused (3 mm diameter) ultrasound transducers with 5 MHz center frequency assembled in a hemispherical bowl in a helical pattern. Water was added to the bowl to transmit the acoustic signal. We collected photoacoustic images with 120 views at 60 pulses/view. Each image covered a volume of 25 × 25 × 25 mm^3 with a voxel size of 280 μm^3, and each dataset required ~6–7 min for acquisition.
(§3) For imaging, the animals were placed inside a tray with the tumor positioned inside a water-filled dimple that couples the ultrasound signal. KSP*-IR800 was injected via tail vein at a concentration of 300 μM in a volume of 250 μL. Photoacoustic images were acquired at 0, 1, 2, 3, 6, 12, and 24 hours post-injection using λex = 780 nm excitation. PPS*-IR800 was administered in the same animal 48 hours later for control after the target peptide cleared as defined by T/B ratio returning to ∼1. IRDye800 (fluorophore without peptide) at the same concentration was also administered for control.
(§4) After completion of imaging, 3D images were reconstructed using data acquired from all 128 transducers at each view using a back-projection algorithm to correct for variations in laser intensity from pulse-to-pulse and small changes in temperature that affect the velocity of acoustic waves in water. The reconstructed raw data was analyzed using Osirix 6.5.2 software (Pixmeo) to generate a maximum intensity projection (MIP) image. To calculate the T/B ratio, the mean photoacoustic signal was measured from the tumor (target) using a circular ROI function on 2D MIP images. For background, we used the same ROI as that for the tumor prior to injection of peptide. The adjacent annulus with same area was used measure the background.

[2] = test system: BT474 and MDA-MB-231 human xenograft breast tumors in nude mice; experiment: as above; parameters: species or system nude mouse
Protocol: as §1, §2, §3, §4

[3] = test system: tumor and internal organs of tumor-bearing mouse; experiment: Peptide biodistribution ex vivo; assay type: in vivo; settings: n = 5 mice
Description: (§5) High peptide uptake seen from the kidneys is consistent with renal clearance.
Figure 5 Peptide biodistribution. […] Strong signal from kidneys support renal clearance. (C) Quantified fluorescence intensities are shown for tumor and other organs from n = 5 mice. We fit a two-way ANOVA model to log-transformed data with terms for 11 tissues and 5 mice and tested each tissue mean against the mean for tumors. Kidney had 1.7 times more intense signals on average (P = 0.03), while all other tissues had at least 2-fold lower signals than tumor on average (P = 0.008 for lung was the largest P-value).

[4] = Histology (H&E) for acute toxicity; assay type: in vivo, mouse; settings: mice euthanized after imaging; KSP*-IR800 by tail vein
Description: as §5

[5] = Sprague-Dawley rats; cited from earlier work
Description: We validated specific binding of this peptide labeled with IRDye800CW to ErbB2 using siRNA knockdown and competition with cells in vitro and with immunohistochemistry and immunofluorescence studies on tissue specimens using known monoclonal anti-ErbB2 antibodies. Also, we have previously used peptides labeled with fluorescein isothiocyanate (FITC) in human clinical studies in hollow organs[25],[26]. We used IRDye800CW to image breast can ...

| Structure (SMILES) | time after injection ([1]; read-out: time to return to baseline levels (T/B ratio)) | time after injection ([1]; λex = 780 nm, read-out: time of peak peptide uptake (T/B ratio)) | time of rapid tumor uptake ([2]; photoacoustic tomography, systemic administration, nude mice (Discussion)) | T/B ratio at ∼24 hours (clearance) ([2]; ∼24 hours post-injection, tail vein, 300 μM in 250 μL) | kidney signal relative to tumor (times more intense) ([3]; 1 hour after injection, two-way ANOVA, P = 0.03) | signal in all other tissues than kidney, fold lower than tumor ([3]; liver, heart, stomach, brain, lung, spleen, small intestine, cecum, colon, 1 hour after injection, largest P = 0.008 (lung)) | fluorescence intensity from tumor compared with other organs ([3]; qualitative) | acute toxicity on histology (H&E) [4] | time of peak signal ([2]; IRDye800 without peptide, same concentration, post-injection) | photoacoustic tumor signal of fluorophore alone ([2]; IRDye800 without peptide, same concentration, qualitative) | intravenous dose up to which safety was published [5] |
| --- | --- | --- | --- | --- | --- | --- | --- | --- | --- | --- | --- |
| CC1(C)C(/C=C/C2=C(Oc3ccc(S(=O)(=O)O)cc3)C(=C/C=C3/N(CCCCS(=O)(=O)[O-])c4ccc(S(=O)(=O)O)cc4C3(C)C)/CCC2)=[N+](CCCCCC(=O)NCCN2C(=O)CC(SC[C@H](NC(=O)[C@H](CO)NC(=O)CNC(=O)CNC(=O)CNC(=O)[C@H](Cc3ccccc3)NC(=O)[C@H](CCCNC(=N)N)NC(=O)[C@@H]3CCCN3C(=O)[C@H](CC(N)=O)NC(=O)[C@@H]3CCCN3C(=O)[C@H](CO)NC(=O)[C@@H](N)CCCCN)C(N)=O)C2=O)c2ccc(S(=O)(=O)O)cc21 (some centres unmarked) [KSP*-IR800] (H-KSPNPRFGGGSC(X1)-NH2) | ~24 | 1 | ~1 h | ~1 | 1.7 times | at least 2 fold | significantly greater fluorescence intensity from the tumor | no acute toxicity |  |  |  |
| CC1(C)C(/C=C/C2=C(Oc3ccc(S(=O)(=O)O)cc3)C(=C/C=C3/N(CCCCS(=O)(=O)O)c4ccc(S(=O)(=O)[O-])cc4C3(C)C)/CCC2)=[N+](CCCCCC(=O)O)c2ccc(S(=O)(=O)O)cc21 [IRDye800, reference compound] |  |  |  |  |  |  |  |  | 2 h | significantly lower signal | up to 20 mg/kg |

From paper PMC5663926, “In vivo near-infrared imaging of ErbB2 expressing breast tumors with dual-axes confocal endomicroscopy using a targeted peptide” (Scientific Reports, 2017)
